In patent publication US12329806B2, “Compound for modulating rlr, tlr, oas and/or oncostatin m pathways, use thereof for preparing a medicine, composition, method for modulating said pathways and method of treatment” (Instituto Butantan, priority 2018, dated 2025) one finds survival rate data, which are given here for one molecule.

For one experiment, the system named is SK-MEL-5. The experiment in a line: Cell viability tests (survival rate), previous experiment. The class given is cell-based. As to conditions: rounded values. From the text:
(§1) ER stress also promotes mitochondrial dysfunction, Cytochrome c release, PARP cleavage, Ca+^2 mobilization and caspase activation in SK-MEL-28 and Mia-PaCa-2 cells, positively regulating CASP3. The survival rate of the previous experiment, calculated using cell viability tests, is herein summarized: Mia-PaCa-2 67%, SK-MEL-28 44%, SK-MEL-5 42%, non-tumoral human fibroblasts 100% (rounded values). These numbers indicate that part of the cells possibly survives through a positive unfolded protein response (UPR) and part dies. […] Furthermore, autophagy could also be evoked to recover a global tissue homeostasis, and, in this case, there is the signature of immunogenic cell death (ICD). It is believed that the ICD could explain this.

Experiment [1] deals with non-tumoral human fibroblasts. The experiment is described as above. The class given is cell-based. As to conditions: rounded values.
Text: as §1

B1: Amblyomin-X: recombinant Kunitz type protein identified in a cDNA library of Amblyomma sculptum tick salivary glands (protein)
chain: MRQLAVLALVIFTGMCVESQSANSKAVCNLPKLAGDETCSNKTEIRWYYNGTACEAFIFKGCGGNDNNFDRVDDCQRLCEEQTHFHFESPKLICFKVQDYWILNDIMKKNLTGISLKSEEEDADSGEID
modifications: Amblyomin-X
notes: recombinant Kunitz type protein identified in a cDNA library of Amblyomma sculptum tick salivary glands
In the case of B1, the survival rate was determined as 42% in the experiment with SK-MEL-5 and 100% in experiment [1].
